Bridge positions count the residues as written; N and C are the ends. Square brackets hold non-standard residues; d marks the D form. Ends that are not written are not given here. Aha = [N-]=[N+]=NCC[C@H](N)C(=O)O; Pra = C#CC[C@H](N)C(=O)O
Experiments:
[1] = target: T1, glycine receptor binding site of gephyrin (peptide binding site) (Homo sapiens, UniProt Q9NQX3); assay: Affinity of β-bodies to the gephyrin peptide binding site; details: compared with original peptide SEQ ID NO: 41
T1 sequence (Q9NQX3 1-736): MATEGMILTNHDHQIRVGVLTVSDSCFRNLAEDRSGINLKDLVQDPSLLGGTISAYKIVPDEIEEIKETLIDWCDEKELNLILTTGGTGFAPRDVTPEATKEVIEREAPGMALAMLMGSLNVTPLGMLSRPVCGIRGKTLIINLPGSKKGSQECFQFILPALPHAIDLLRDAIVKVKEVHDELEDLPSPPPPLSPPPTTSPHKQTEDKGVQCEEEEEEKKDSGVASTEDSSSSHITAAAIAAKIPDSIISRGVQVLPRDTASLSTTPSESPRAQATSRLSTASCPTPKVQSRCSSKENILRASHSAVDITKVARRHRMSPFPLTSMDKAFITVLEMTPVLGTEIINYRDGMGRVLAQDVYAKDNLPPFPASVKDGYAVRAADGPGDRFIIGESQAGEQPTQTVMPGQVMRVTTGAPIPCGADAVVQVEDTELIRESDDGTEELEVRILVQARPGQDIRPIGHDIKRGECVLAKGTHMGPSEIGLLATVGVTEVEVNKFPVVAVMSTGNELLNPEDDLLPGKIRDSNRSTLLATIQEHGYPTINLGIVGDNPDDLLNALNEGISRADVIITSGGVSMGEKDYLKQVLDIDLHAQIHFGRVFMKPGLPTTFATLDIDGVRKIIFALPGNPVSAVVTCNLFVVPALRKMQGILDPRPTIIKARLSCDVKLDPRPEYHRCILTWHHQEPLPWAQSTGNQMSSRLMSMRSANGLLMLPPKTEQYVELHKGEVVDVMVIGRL
Protocol: The following β-body TTVTGTLYPGTLLGFETT (SEQ ID NO: 41) underwent optimization via alanine scanning. The resulting 9 β-bodies were tested for their affinity to the glycine receptor binding site of gephyrin (peptide binding site). The affinity of the original peptide could be improved and optimized β-bodies were found having the following sequences CTVTGTLYPGTLLGFETC (SEQ ID NO: 42) and TTVTGTLYPGTLLGAATT (SEQ ID NO: 43).

Il1 [2] = assay: Binding of β-bodies with the target compound (Table 1), Il1; details: Purpose Il1; tested for binding with the target compound
GFP = GFP 60 nM, both bead types incubated at the same time
Protocol: GFP (60 nM) was incubated with different β-body beads at the same time, a first type of β-body beads specific for GFP (β-body SEQ ID NO: 1;
[…]) and a second type of β-body beads specific for IL1 (β-body SEQ ID NO: 5).

Il1 [3] = assay: Selectivity assay GFP vs. IL1: beads incubated with ROX-IL1; format: binding; details: ROX-IL1 100 nM, both bead types incubated at the same time
Excerpt: The same experiment was repeated with IL1.

Interleukin 1 = assay: Sandwich binding assay on PEGA beads, IL1 model
Excerpt: (§1) For sandwich assays β-bodies identified as described in Examples 1 and 2 were synthesized by standard Fmoc-based solid phase peptide synthesis on biocompatible PEGA-beads (e.g. PEGA1900 which has a porosity allowing penetration of proteins up to 70 kDa). PEGA beads are available from Sigma Aldrich.
The intensity of the fluorescence is a measure of the concentration of IL1 and the affinity of the interaction.

interleukin 6 = interleukin 6 (Homo sapiens, UniProt P05231); assay: Sandwich binding assay on PEGA beads, IL6 model
Protocol: as §1
The sandwich binding assay was performed as follows: two beads with ligand E prepared as described above were contained in separate wells and were added to 50 μL MilliQ water in a microtiter well containing 100 nM of the peptide F. […]
The beads were washed twice with PBS to improve signal to noise. The well was imaged with an ICX73 fluorescence microscope (Olympus) using a ROX filter cube.

POI = assay: Screening of OBOC β-body library with AMC-labelled POI; format: binding; details: POI 10 nM, 2 h incubation; site of interaction not determined
Protocol: The library of K(TX)4PG(XT)4EG was synthesized on HMBA-PEGA1900 resin by the split—mix method essentially as described in Christensen et al, 2003 and was deprotected with 95% TFA. The POI was dissolved in phosphate buffer at pH 7.5, labeled with aminomethylcoumarin using AMC-(CH2)3—CO—OSu (4 eqv, 30 min) and purified by FPLC. […] The protein was dissolved at 100 nM concentration and the library was incubated for 2 h with this solution at 10 fold dilution (10 nM). The library was inspected under a ICX73 fluorescence microscope using a […]. Beads with strong AMC-fluorescence were collected in separate Eppendorph tubes using a microsyringe. The beads were washed and 5% triethylamine in water was added. After incubation overnight the supernatant was transferred to another eppendorph tube and the bead was washed with 70% acetonitril/water. The combined solutions were concentrated to dryness twice using a speedvacc and the residue dissolved in 50% acetonitrile/water. […] The site of interaction on the POI was not determined.

Il2 = Il2 (Homo sapiens, UniProt P60568); assay: Binding of β-bodies with the target compound (Table 1), Il2; details: Purpose Il2; tested for binding with the target compound
Interleukin 2 = Interleukin 2 (Homo sapiens, UniProt P60568); assay: Sandwich binding assay on PEGA beads, IL2 model
Protocol: as §1
The sandwich binding assay was performed as follows: four beads with ligand C prepared as described above were added to 50 μL MilliQ water in a microtiter well containing 100 nM of the peptide D. The well was imaged with an ICX73 fluorescence microscope (Olympus) using a ROX filter cube.
The intensity of the fluorescence is a measure of the concentration of IL2 and the affinity of the interaction. The result obtained after 3 min. incubation is shown in FIG. 10 and after 20 min. incubation in FIG. 1D.

Gephyrin = target: T2, Gephyrin (Homo sapiens, UniProt Q9NQX3); assay: Binding of β-bodies with the target compound (Table 1), Gephyrin; details: Purpose Gephyrin; tested for binding with the target compound
T2 sequence (Q9NQX3 1-736): T1 sequence (Q9NQX3 1-736)

Beads modified with (2) = assay: Fluorescent β-bodies incubated with beads modified with (2); format: binding; details: for Kd: bead-(2) with fluorescent β-body; for Binding of fluorescent β-body to beads modified with (2): FIG. 8
Protocol: (§2) A fluorescent probe was attached to (1), (2) AND (3). The fluorescent β-bodies were then incubated with: • Beads modified with NHAc; or • Beads modified with (1); or • Beads modified with (2).

Beads modified with (1) = assay: Fluorescent β-bodies incubated with beads modified with (1); format: binding; details: FIG. 8
Protocol: as §2

[4] = ligand 1 beads + 100 nM ligand 2, Interleukin 1 50 nM, 20 min
[5] = ligand 1 beads + 100 nM ligand 2, without IL1 (interaction between the two β-bodies)

Chain of interleukin 6 (P05231 30-212, species assumed): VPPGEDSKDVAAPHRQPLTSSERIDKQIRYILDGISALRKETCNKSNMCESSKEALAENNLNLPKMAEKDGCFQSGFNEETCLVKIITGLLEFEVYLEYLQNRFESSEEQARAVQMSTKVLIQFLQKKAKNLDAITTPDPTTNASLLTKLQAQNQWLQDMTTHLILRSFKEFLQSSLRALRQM
Chain of Interleukin 2 (P60568 21-153, species assumed): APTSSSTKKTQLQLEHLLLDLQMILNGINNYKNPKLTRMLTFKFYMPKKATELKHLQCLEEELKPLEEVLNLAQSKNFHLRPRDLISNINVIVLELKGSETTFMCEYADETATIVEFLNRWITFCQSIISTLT
Chain of Il2 (P60568 21-153, species assumed): as above

Question: Which “affinity to the glycine receptor binding site of gephyrin” value (from here on “affinity”) [1] does the source give for “Abu(N3)-TVTGTLYPGTLLGFET-Pra ([Aha]TVTGTLYPGTLLGFET[Pra]; triazole 1-18 (inferred)) [SEQ ID NO: 44]” here?
Answer: unchanged

Question: For “CTVTGTLYPGTLLGFETC (Designed peptide) [SEQ ID NO: 42]”, which “affinity” value [1] is on record?
Answer: improved

Question: How did the Binding (Il1 [2]) turn out when “EPraDTYTETYPGRTITWTIAbu(N3)DG (E[Pra]DTYTETYPGRTITWTI[Aha]DG; triazole 2-19 (inferred)) [SEQ ID NO: 9]” was run?
Answer: High

Question: Which “Binding of β-body beads to GFP” value (GFP) does the source give for “ETDTYTETYPGYTSTWTITD (Designed peptide) [SEQ ID NO: 5]” here?
Answer: only β-body beads specific for GFP underwent binding

Question: And the “Binding of β-body beads to IL1” value (Il1 [3])?
Answer: underwent binding

Question: What about the “ROX fluorescence accumulation in the beads” value (Interleukin 1; [4]) of the same substance?
Answer: positive signal

Question: What about the “ROX fluorescence accumulation in the beads” value (Interleukin 1; ligand 1 beads + 100 nM ligand 2, Interleukin 1 50 nM, 20 min, listed as A) of the same substance?
Answer: accumulation of significant ROX fluorescence

Question: And the “ROX fluorescence accumulation in the beads” value (Interleukin 1; [5])?
Answer: no signal

Question: And the “ROX fluorescence accumulation in the beads” value (Interleukin 1; ligand 1 beads + 100 nM ligand 2, without IL1 (interaction between the two β-bodies), listed as A)?
Answer: No fluorescence accumulation over background

Question: Which results are given for “HTWTDTLTRPGYTVTHTLTL (Designed peptide) [SEQ ID NO: 17]”?
Answer: ROX fluorescence accumulation in the bead (interleukin 6; ligand 5 bead + 100 nM ligand 6, interleukin 6 20 nM, 20 min, listed as E): accumulation of significant ROX fluorescence; ROX fluorescence accumulation in the bead (interleukin 6; ligand 5 bead + 100 nM ligand 6, interleukin 6 20 nM, 20 min, listed as ligand 5): positive signal; ROX fluorescence accumulation in the bead (interleukin 6; ligand 5 bead + 100 nM ligand 6, without IL6 (interaction between the two β-bodies), listed as E): No fluorescence accumulation over background; ROX fluorescence accumulation in the bead (interleukin 6; ligand 5 bead + 100 nM ligand 6, without IL6 (interaction between the two β-bodies), listed as ligand 5): no signal

Question: How did the “Binding of library beads to AMC-labelled POI (AMC-fluorescence)” value (“Binding of library beads” for short) (POI) turn out when “KTGTQNLTGPGRTHTQTATEG (Designed peptide; PEPTIDE (1)..(21) GFP) [SEQ ID NO: 3]” was run?
Answer: strong binding

Question: How did the “Binding of library beads” value (POI) turn out when “KTQTYNGTGPGRTGTVTYTEG (Designed peptide) [SEQ ID NO: 55]” was run?
Answer: strong binding

Question: With “KTYTYNYTGPGRTSTATLTEG (Designed peptide) [SEQ ID NO: 56]” as the substance, how does the “Binding of library beads” value (POI) read?
Answer: strong binding

Question: How did the Binding (Il2) turn out when “NTVTNTMTRPGVTETVTQTD (Designed peptide) [SEQ ID NO: 15]” was run?
Answer: High

Question: And the “ROX fluorescence accumulation in the beads” value (Interleukin 2; ligand 3 beads + 100 nM ligand 4, Interleukin 2 50 nM, 3 and 20 min)?
Answer: positive signal

Question: What about the “ROX fluorescence accumulation in the beads” value (Interleukin 2; ligand 3 beads + 100 nM ligand 4, Interleukin 2 50 nM, 3 and 20 min, listed as C) of the same substance?
Answer: accumulation of significant ROX fluorescence

Question: And the “ROX fluorescence accumulation in the beads” value (Interleukin 2; ligand 3 beads + 100 nM ligand 4, without IL2 (interaction between the two β-bodies))?
Answer: no signal

Question: And the “ROX fluorescence accumulation in the beads” value (Interleukin 2; ligand 3 beads + 100 nM ligand 4, without IL2 (interaction between the two β-bodies), listed as C)?
Answer: No fluorescence accumulation over background

Question: How did the Binding (Gephyrin) turn out when “Pra-ITKTARYTMPGKTLTKTGTL-Abu(N3)-G ([Pra]ITKTARYTMPGKTLTKTGTL[Aha]G; triazole 1-22 (inferred)) [SEQ ID NO: 46]” was run?
Answer: Medium

Question: For “Pra-TVTGTLYPGTLLGFET-Abu(N3) ([Pra]TVTGTLYPGTLLGFET[Aha]; triazole 1-18 (inferred)) [SEQ ID NO: 34]”, which “affinity” value [1] is on record?
Answer: unchanged

Question: “Pra-YTYTDTTPGVTRTLTWG-Abu(N3)-OH ([Pra]YTYTDTTPGVTRTLTWG[Aha]-OH; triazole 1-19 (inferred)) [SEQ ID NO: 38]” was tested. Which Binding (Gephyrin) did it give?
Answer: Medium

Question: With “PraTWTLTHTPGTMEITET-Abu(N3)-OH ([Pra]TWTLTHTPGTMEITET[Aha]-OH; triazole 1-18 (inferred)) [SEQ ID NO: 39]” as the substance, how does the Binding (Gephyrin) read?
Answer: Medium

Question: TFTFTFPGLTRTHT [SEQ ID NO: 59] was tested. Which Kd (Beads modified with (2)) did it give?
Answer: 5000 nM

Question: With “TITKTARYTMPGKTLTKTGTLTG (Designed peptide) [SEQ ID NO: 45]” as the substance, how does the Binding (Gephyrin) read?
Answer: Medium

Question: Which results are given for “TKTDRVTEPGRTMTFTGT (Designed peptide) [SEQ ID NO: 7]”?
Answer: ROX fluorescence accumulation in the beads (Interleukin 1; [4]): positive signal; ROX fluorescence accumulation in the beads (Interleukin 1; ligand 1 beads + 100 nM ligand 2, Interleukin 1 50 nM, 20 min, listed as B): accumulation of significant ROX fluorescence; ROX fluorescence accumulation in the beads (Interleukin 1; [5]): no signal; ROX fluorescence accumulation in the beads (Interleukin 1; ligand 1 beads + 100 nM ligand 2, without IL1 (interaction between the two β-bodies), listed as B): No fluorescence accumulation over background

Question: For “TMTDTDTYPGFTDTLTHA (Designed peptide) [SEQ ID NO: 16]”, which “ROX fluorescence accumulation in the bead” value (interleukin 6; ligand 5 bead + 100 nM ligand 6, interleukin 6 20 nM, 20 min) is on record?
Answer: positive signal

Question: What about the “ROX fluorescence accumulation in the bead” value (interleukin 6; ligand 5 bead + 100 nM ligand 6, interleukin 6 20 nM, 20 min, listed as F) of the same substance?
Answer: accumulation of significant ROX fluorescence

Question: And the “ROX fluorescence accumulation in the bead” value (interleukin 6; ligand 5 bead + 100 nM ligand 6, without IL6 (interaction between the two β-bodies))?
Answer: no signal

Question: And the “ROX fluorescence accumulation in the bead” value (interleukin 6; ligand 5 bead + 100 nM ligand 6, without IL6 (interaction between the two β-bodies), listed as F)?
Answer: No fluorescence accumulation over background

Question: For “TTVTGTLYPGTLLGAATT (Designed peptide) [SEQ ID NO: 43]”, which “affinity” value [1] is on record?
Answer: improved

Question: Which results are given for “TTYTYPGDTFTI (Designed peptide) [SEQ ID NO: 58]”?
Answer: Binding of fluorescent β-body to beads modified with (1) (Beads modified with (1)): best bind; Binding of fluorescent β-body to beads modified with (2) (Beads modified with (2)): high affinity

Question: With “TWTETYTWTEPGDTQTLTITNT (Designed peptide) [SEQ ID NO: 11]” as the substance, how does the Binding (Il1 [2]) read?
Answer: High

Question: Which “Binding of fluorescent β-body to beads modified with (1)” value (Beads modified with (1)) does the source give for TYTYTYPGLTRTHT [SEQ ID NO: 57] here?
Answer: high affinity

Question: And the “Binding of fluorescent β-body to beads modified with (2)” value (Beads modified with (2))?
Answer: best bind

Question: And the Kd (Beads modified with (2))?
Answer: 700 nM

Reference: patent US20190284243A1, “BINDING PEPTIDES” (University of Copenhagen, priority 2016, published 2019)
